Results as given in publication PMC4007151 (Nature communications, 2013).
No end group written: not given here.

Molecular target: T1, PHF1 Tudor-PHD1 (human, UniProt O43189 14-140)
T1 sequence: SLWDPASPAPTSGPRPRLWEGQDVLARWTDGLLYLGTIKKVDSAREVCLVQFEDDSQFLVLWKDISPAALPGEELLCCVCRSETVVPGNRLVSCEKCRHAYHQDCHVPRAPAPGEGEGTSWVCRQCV
Assay: NMR titration

binding result: binds
Binder: ATGGVK(Me3)KPHR [H3K36me3 peptide]
